The target in the assay is Recombinant RbAp48 (human, UniProt Q09028 1-425). In words: ITC; MTA1 peptide (250 uM) titrated into RbAp48 (25 uM); 25 C; 20 mM Tris pH 7.5, 150 mM NaCl; single-site model. Conditions: both partners purified. Background: Isothermal titration calorimetry measures the heat released or taken up as one component is titrated into another.

The Kd is the equilibrium constant for the complex coming apart. For orientation: stoichiometry N means a count of units in the complex or per binding partner.

Sequence of Recombinant RbAp48 (Q09028 whole entry): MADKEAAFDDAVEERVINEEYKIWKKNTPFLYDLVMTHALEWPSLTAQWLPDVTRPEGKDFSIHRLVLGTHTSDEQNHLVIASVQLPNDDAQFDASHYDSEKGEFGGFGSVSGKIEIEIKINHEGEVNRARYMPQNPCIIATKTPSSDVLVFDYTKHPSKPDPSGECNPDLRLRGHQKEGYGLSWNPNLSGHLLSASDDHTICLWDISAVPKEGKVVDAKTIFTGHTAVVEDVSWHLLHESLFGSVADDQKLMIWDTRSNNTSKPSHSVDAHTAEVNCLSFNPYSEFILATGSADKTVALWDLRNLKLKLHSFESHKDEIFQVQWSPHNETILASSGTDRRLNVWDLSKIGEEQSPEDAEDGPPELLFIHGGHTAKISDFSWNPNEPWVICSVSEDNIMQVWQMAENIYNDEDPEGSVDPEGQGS

For Ac-KLLSSSETKRAARRPYKPIALRQSQA-NH2 (peptide, UniProt Q13330 670-695, looked up) [MTA1-(670-695) peptide], the Kd was 50 nM and the “stoichiometry N” value stood at 1.
As to Ac-DVFYMATEETRKIRKLLSSSETKRAARRPYK-NH2 (peptide, UniProt Q13330 656-686, looked up) [MTA1-(656-686) peptide], the “stoichiometry N” value was 1.
Ac-KLLSSSETKRAARRPYKPIALRQSQALPPRPPPPAPVNDEPI-NH2 (peptide, UniProt Q13330 670-711, looked up) [MTA1-(670-711) peptide]: the “stoichiometry N” value was 1.

The record behind these values is publication PMC4139204 (The Journal of Biological Chemistry, 2014).
